From IntAct's records for PubMed 24165923

B1: R-spondin-1 (Homo sapiens), Q2MKA7 (parent)
chain: MRLGLCVVALVLSWTHLTISSRGIKGKRQRRISAEGSQACAKGCELCSEVNGCLKCSPKLFILLERNDIRQVGVCLPSCPPGYFDARNPDMNKCIKCKIEHCEACFSHNFCTKCKEGLYLHKGRCYPACPEGSSAANGTMECSSPAQCEMSEWSPWGPCSKKQQLCGFRRGSEERTRRVLHAPVGDHAACSDTKETRRCTVRRVPCPEGQKRRKGGQGRRENANRNLARKESKEAGAGSRRRKGQQQQQQQGTVGPLTSAGPA

Variants of: B1
Settings: with znrf3_human ZNRF3, Q9ULT6
Chain of znrf3_human ZNRF3, Q9ULT6 (Q9ULT6 whole entry): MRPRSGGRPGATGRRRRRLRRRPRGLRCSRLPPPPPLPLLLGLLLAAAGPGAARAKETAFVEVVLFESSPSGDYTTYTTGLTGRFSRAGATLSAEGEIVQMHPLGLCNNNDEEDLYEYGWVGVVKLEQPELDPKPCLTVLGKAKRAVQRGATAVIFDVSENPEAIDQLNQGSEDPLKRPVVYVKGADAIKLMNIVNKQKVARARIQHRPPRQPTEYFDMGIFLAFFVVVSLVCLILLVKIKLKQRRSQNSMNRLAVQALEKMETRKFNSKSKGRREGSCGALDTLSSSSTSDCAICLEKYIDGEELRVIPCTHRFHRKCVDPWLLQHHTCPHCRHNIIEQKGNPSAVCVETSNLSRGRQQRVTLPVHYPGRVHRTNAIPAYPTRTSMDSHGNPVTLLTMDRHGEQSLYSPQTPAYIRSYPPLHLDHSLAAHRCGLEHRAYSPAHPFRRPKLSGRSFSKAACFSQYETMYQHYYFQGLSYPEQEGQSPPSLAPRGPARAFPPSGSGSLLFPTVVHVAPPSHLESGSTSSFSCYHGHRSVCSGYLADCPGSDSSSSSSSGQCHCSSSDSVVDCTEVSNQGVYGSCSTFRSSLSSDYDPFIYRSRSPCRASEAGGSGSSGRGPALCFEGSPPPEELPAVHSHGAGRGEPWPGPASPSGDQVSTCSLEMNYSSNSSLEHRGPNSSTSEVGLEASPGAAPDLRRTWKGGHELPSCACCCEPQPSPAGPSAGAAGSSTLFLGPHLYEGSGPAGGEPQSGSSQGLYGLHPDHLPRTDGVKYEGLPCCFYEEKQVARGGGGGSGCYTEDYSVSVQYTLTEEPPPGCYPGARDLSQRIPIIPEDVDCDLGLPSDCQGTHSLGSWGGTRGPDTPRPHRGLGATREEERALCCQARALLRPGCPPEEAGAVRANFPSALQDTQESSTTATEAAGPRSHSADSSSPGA

Question: How did the “effect of a mutation on the interaction” value turn out when MRLGLCVVALVLSWTHLTISSRGIKGKRQRRISAEGSQACAKGCELCSEVNGCLKCSPKLFILLEANDIRQVGVCLPSCPPGYFDARNPDMNKCIKCKIEHCEACFSHNFCTKCKEGLYLHKGRCYPACPEGSSAANGTMECSSPAQCEMSEWSPWGPCSKKQQLCGFRRGSEERTRRVLHAPVGDHAACSDTKETRRCTVRRVPCPEGQKRRKGGQGRRENANRNLARKESKEAGAGSRRRKGQQQQQQQGTVGPLTSAGPA [R66A] was run?
Answer: The value was “disrupting interaction”.
